Reference: the supplement of paper PMC10126150
± gives the standard deviation of the averaged measurements.

Test system: ATP
Test: switch fluorescence ratio, 500 uM ATP over buffer (Cy3 cluster intensity, sum of 5 cycles each) (fold (ratio)); higher = stronger signal-on switching upon ATP binding; sequences stand for … in TCGTCGGCAGCGTCAGATGTGTATAAGAGACAGTTTTTTTTTTTTTTTTTTTTTTTTT…TC
Settings: aptamer strand: ATP DNA aptamer (quencher-CACCTGGGGGAGTATTGCGGAGGAAGG + anchor), 100 nM annealed; ATP concentration: 500 uM
Outline: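 Exposure to 500 uM ATP lasted 15 min at 22 °C before imaging, and a selection-buffer image was taken beforehand, for Cy3-labelled switching-strand clusters on a modified Illumina MiSeq flow-cell annealed to 100 nM quencher-labelled ATP aptamer. Five buffer/ATP cycles were run with NaOH stripping and re-annealing between them. The fluorescence ratio per cluster is summed target-cycle over summed buffer-cycle Cy3 intensity, averaged per switch-domain sequence. Clusters outside 100-1000 RFU were excluded.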

| Sequence | switch fluorescence ratio |
| --- | --- |
| CAGGGCGGGA | 0.936 ± 0.028 |
| CAGGGCGTGG | 0.948 ± 0.038 |
| CAGGGCGTTC | 0.9856 ± 0.0044 |
| CAGGGGAAAG | 1.01 ± 0.033 |
| CAGGGGAATG | 0.994 ± 0.021 |
| CAGGGGAGCA | 1.02 ± 0.039 |
| CAGGGGATGC | 0.987 ± 0.067 |
| CAGGGGCACG | 1.06 ± 0.04 |
| CAGGGGCTGG | 1.05 ± 0.03 |
| CAGGGGGACG | 0.923 ± 0.063 |
| CAGGGGGAGG | 1.03 ± 0.048 |
| CAGGGGGCAC | 1.05 ± 0.042 |
| CAGGGGGGCC | 1.03 ± 0.02 |
| CAGGGGGTTA | 1.02 ± 0.026 |
| CAGGGGGTTT | 1.01 ± 0.044 |
| CAGGGGTGCT | 1.03 ± 0.03 |
| CAGGGTACGG | 1.01 ± 0.052 |
| CAGGGTGAAC | 1.02 ± 0.019 |
| CAGGGTGCAT | 1.02 ± 0.051 |
| CAGGGTGCTG | 0.973 ± 0.033 |
| CAGGGTGTGC | 1.012 ± 0.00054 |
| CAGGGTTGAG | 0.997 ± 0.014 |
| CAGGGTTGCC | 0.996 ± 0.018 |
| CAGGGTTTTT | 0.999 ± 0.017 |
| CAGGTAAGAG | 0.987 ± 0.013 |

| Sequence | switch fluorescence ratio |
| --- | --- |
| CAGGTACGGG | 1.02 ± 0.025 |
| CAGGTAGTGC | 1.04 ± 0.096 |
| CAGGTCACTG | 0.965 ± 0.044 |
| CAGGTCATGC | 1.02 ± 0.058 |
| CAGGTCGTTT | 1.032 ± 0.0069 |
| CAGGTCTTAA | 0.9719 ± 0.0054 |
| CAGGTGACGC | 1.07 ± 0.014 |
| CAGGTGGGGC | 1.02 ± 0.035 |
| CAGGTGGGTC | 1.02 ± 0.018 |
| CAGGTTAATG | 1.0027 ± 0.00049 |
| CAGGTTGATG | 1.01 ± 0.032 |
| CAGGTTGCCT | 0.999 ± 0.046 |
| CAGGTTGGGG | 1.03 ± 0.054 |
| CAGGTTGTGG | 0.992 ± 0.024 |
| CAGGTTTTTT | 0.989 ± 0.019 |
| CAGTAATATT | 1.06 ± 0.017 |
| CAGTAGAGGG | 0.977 ± 0.028 |
| CAGTAGCGG | 1.14 ± 0.018 |
| CAGTAGGGTC | 0.997 ± 0.014 |
| CAGTAGGTCT | 1.01 ± 0.027 |
| CAGTAGTTTT | 1 ± 0.017 |
| CAGTATATTG | 0.995 ± 0.025 |
| CAGTATTTCC | 1.05 ± 0.043 |
| CAGTCAGGGC | 1.26 ± 0.21 |
| CAGTCATATT | 1.02 ± 0.034 |

| Sequence | switch fluorescence ratio |
| --- | --- |
| CAGTCGAGTT | 1.003 ± 0.0076 |
| CAGTCGGTCA | 1.01 ± 0.032 |
| CAGTCGGTGG | 1 ± 0.031 |
| CAGTCGTGGA | 0.969 ± 0.016 |
| CAGTCTATCA | 0.972 ± 0.029 |
| CAGTCTATCG | 1.01 ± 0.021 |
| CAGTCTGCAG | 0.991 ± 0.031 |
| CAGTCTGGTG | 1.01 ± 0.025 |
| CAGTGAATGA | 1.03 ± 0.017 |
| CAGTGAGATG | 1.03 ± 0.019 |
| CAGTGAGCTC | 0.981 ± 0.022 |
| CAGTGAGGTT | 1.02 ± 0.031 |
| CAGTGCCAGC | 0.999 ± 0.035 |
| CAGTGTGAAG | 0.958 ± 0.016 |
| CAGTGTGGTC | 0.979 ± 0.055 |
| CAGTTACGAC | 1.13 ± 0.055 |
| CAGTTAGTGT | 1.001 ± 0.00021 |
| CAGTTATGCC | 0.988 ± 0.077 |
| CAGTTCCATG | 0.9857 ± 0.0091 |
| CAGTTCGGGA | 0.989 ± 0.02 |
| CAGTTGGATT | 1.01 ± 0.04 |
| CAGTTGGTC | 0.995 ± 0.037 |
| CAGTTTCAGG | 0.966 ± 0.043 |
| CAGTTTCCTC | 1.08 ± 0.015 |
| CAGTTTGACC | 0.987 ± 0.048 |

| Sequence | switch fluorescence ratio |
| --- | --- |
| CAGTTTTCCC | 1.01 ± 0.016 |
| CAGTTTTCTT | 1.01 ± 0.062 |
| CAGTTTTTTC | 1.005 ± 0.0054 |
| CATAACGTTA | 1.032 ± 0.0071 |
| CATAAGGTAT | 0.999 ± 0.046 |
| CATAATCCGA | 1.048 ± 0.0029 |
| CATAATCCGG | 0.9679 ± 0.0022 |
| CATAATGGTC | 0.986 ± 0.041 |
| CATAATTGGG | 0.995 ± 0.028 |
| CATAATTGTA | 0.979 ± 0.019 |
| CATACAATAT | 1.109 ± 0.0014 |
| CATACTTTGG | 1.01 ± 0.016 |
| CATAGGCTAC | 1.6 ± 0.031 |
| CATAGGGCTT | 0.963 ± 0.025 |
| CATAGGTTCT | 0.986 ± 0.023 |
| CATAGGTTGC | 0.983 ± 0.041 |
| CATAGTGATC | 1.051 ± 0.0011 |
| CATATAAACT | 1.039 ± 0.0047 |
| CATATATGTC | 1 ± 0.056 |
| CATATCTAGG | 0.997 ± 0.025 |
| CATATCTGAC | 1.16 ± 0.056 |
| CATATCTGAT | 1.01 ± 0.041 |
| CATATCTGTT | 1.02 ± 0.024 |
| CATATGCGTC | 1.02 ± 0.035 |
| CATATGCTGC | 1.0589 ± 0.00039 |

| Sequence | switch fluorescence ratio |
| --- | --- |
| CATATGTTAG | 1 ± 0.038 |
| CATATTCGCT | 1.01 ± 0.016 |
| CATATTTCCA | 0.99 ± 0.02 |
| CATATTTCGG | 0.995 ± 0.03 |
| CATATTTT | 0.971 ± 0.047 |
| CATATTTTTA | 1.04 ± 0.05 |
| CATCAGGCAC | 1.2 ± 0.023 |
| CATCATCTTG | 1 ± 0.062 |
| CATCATGTAC | 1.33 ± 0.059 |
| CATCCGAGGT | 1.14 ± 0.23 |
| CATCCGTGGG | 1.75 ± 0.085 |
| CATCCTTTAA | 1.007 ± 0.0082 |
| CATCGATTGT | 1 ± 0.019 |
| CATCGCGGAC | 3.88 ± 0.45 |
| CATCGGATAT | 1.04 ± 0.052 |
| CATCGGCAAG | 5.75 ± 1.3 |
| CATCGTATGG | 0.954 ± 0.022 |
| CATCTCAGTG | 1.03 ± 0.015 |
| CATCTGGCTT | 1.0536 ± 0.00031 |
| CATCTGTGCG | 1.02 ± 0.016 |
| CATGAAGGGG | 1.02 ± 0.015 |
| CATGAATGGA | 1.01 ± 0.017 |
| CATGACTAGA | 0.981 ± 0.014 |
| CATGAGAGGT | 1 ± 0.018 |
| CATGAGATAC | 1.16 ± 0.022 |

| Sequence | switch fluorescence ratio |
| --- | --- |
| CATGAGATTG | 0.971 ± 0.029 |
| CATGAGGGAG | 0.996 ± 0.019 |
| CATGAGTAAG | 1 ± 0.015 |
| CATGAGTATT | 0.954 ± 0.033 |
| CATGATGTTG | 0.975 ± 0.026 |
| CATGCAGCAT | 1.11 ± 0.02 |
| CATGCCGCAT | 1.133 ± 0.0092 |
| CATGCTAAGT | 0.997 ± 0.011 |
| CATGCTGGG | 0.992 ± 0.04 |
| CATGCTTGGC | 1.01 ± 0.055 |
| CATGCTTTGT | 0.9924 ± 0.0069 |
| CATGGAGGTC | 1.03 ± 0.026 |
| CATGGAGTGT | 1.01 ± 0.026 |
| CATGGATACG | 1.01 ± 0.021 |
| CATGGGAGAG | 1.05 ± 0.026 |
| CATGGGAGCT | 1.01 ± 0.043 |
| CATGGGGCCT | 0.9984 ± 0.0027 |
| CATGGGGGAG | 0.978 ± 0.035 |
| CATGGGGGTA | 0.982 ± 0.026 |
| CATGGGTGCG | 1.02 ± 0.014 |
| CATGGTATTA | 1.01 ± 0.044 |
| CATGGTCATG | 1 ± 0.017 |
| CATGGTGTGT | 1.01 ± 0.011 |
| CATGTAAGGC | 1.03 ± 0.021 |
| CATGTATTGG | 0.991 ± 0.021 |

| Sequence | switch fluorescence ratio |
| --- | --- |
| CATGTCATTG | 1.01 ± 0.015 |
| CATGTCCAGG | 1.46 ± 0.059 |
| CATGTCGAGC | 1.02 ± 0.059 |
| CATGTCGTTT | 1 ± 0.017 |
| CATGTGCACC | 1.014 ± 0.0092 |
| CATGTGTAAT | 1.009 ± 0.0086 |
| CATGTTCTTT | 0.999 ± 0.026 |
| CATGTTGAAG | 0.986 ± 0.077 |
| CATGTTTGCT | 0.961 ± 0.02 |
| CATGTTTTGC | 1.01 ± 0.065 |
| CATTAATGGG | 1.01 ± 0.019 |
| CATTACCGGA | 1.012 ± 0.0098 |
| CATTAGCAGG | 1.08 ± 0.032 |
| CATTAGCCAG | 0.99754 ± 0.00029 |
| CATTAGGGCT | 0.978 ± 0.015 |
| CATTATGATG | 1.01 ± 0.013 |
| CATTCACATT | 1.05 ± 0.034 |
| CATTCAGTTT | 0.949 ± 0.021 |
| CATTCCGAGA | 1.4 ± 0.024 |
| CATTCCGGGA | 1.63 ± 0.72 |
| CATTCTACTG | 1.04 ± 0.021 |
| CATTCTGACC | 1.08 ± 0.036 |
| CATTCTGCGC | 1.16 ± 0.05 |
| CATTGACATT | 1.06 ± 0.026 |
| CATTGAGGTT | 0.979 ± 0.02 |

| Sequence | switch fluorescence ratio |
| --- | --- |
| CATTGATGTG | 1 ± 0.011 |
| CATTGGCCGG | 1.095 ± 0.0025 |
| CATTGGTAGT | 0.977 ± 0.035 |
| CATTGGTTGT | 0.927 ± 0.025 |
| CATTGTGTAT | 0.975 ± 0.029 |
| CATTTAAAG | 1.01 ± 0.031 |
| CATTTAACGT | 0.991 ± 0.0041 |
| CATTTAGAGG | 1.007 ± 0.0073 |
| CATTTAGTGT | 0.984 ± 0.012 |
| CATTTAGTTG | 0.985 ± 0.042 |
| CATTTATATG | 1.02 ± 0.026 |
| CATTTATGCG | 0.989 ± 0.018 |
| CATTTCAGAG | 1.003 ± 0.0062 |
| CATTTCAGG | 1.05 ± 0.033 |
| CATTTCGTTT | 0.957 ± 0.014 |
| CATTTGAATT | 0.973 ± 0.033 |
| CATTTGCGGA | 0.981 ± 0.055 |
| CATTTGTGGA | 1.003 ± 0.0062 |
| CATTTGTGGT | 1.02 ± 0.014 |
| CATTTTTATC | 0.992 ± 0.012 |
| CATTTTTGTA | 0.986 ± 0.012 |
| CCAAAAGGCT | 1.08 ± 0.044 |
| CCAAATGAAT | 1.03 ± 0.025 |
| CCAAATTGGG | 1.016 ± 0.0048 |
| CCAACAGGTT | 1.69 ± 0.079 |
